# Data taken from patent US20200325187A1 (Genentech, published 2020).
# Read-outs that look alike come from different tables or passages of the source. No end group written: not given here.
# T1: hVEGF-A (8-109) (human, UniProt P15692 214-315)
# T1 sequence (looked up): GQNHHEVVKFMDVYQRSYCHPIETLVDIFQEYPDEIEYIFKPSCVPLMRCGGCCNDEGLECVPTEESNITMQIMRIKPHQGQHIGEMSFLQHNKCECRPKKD
# T2: LRP6 E1E2 protein (human, UniProt O75581 20-630, limits assumed)
# T2 construct: domain: E1E2
# T2 sequence (looked up): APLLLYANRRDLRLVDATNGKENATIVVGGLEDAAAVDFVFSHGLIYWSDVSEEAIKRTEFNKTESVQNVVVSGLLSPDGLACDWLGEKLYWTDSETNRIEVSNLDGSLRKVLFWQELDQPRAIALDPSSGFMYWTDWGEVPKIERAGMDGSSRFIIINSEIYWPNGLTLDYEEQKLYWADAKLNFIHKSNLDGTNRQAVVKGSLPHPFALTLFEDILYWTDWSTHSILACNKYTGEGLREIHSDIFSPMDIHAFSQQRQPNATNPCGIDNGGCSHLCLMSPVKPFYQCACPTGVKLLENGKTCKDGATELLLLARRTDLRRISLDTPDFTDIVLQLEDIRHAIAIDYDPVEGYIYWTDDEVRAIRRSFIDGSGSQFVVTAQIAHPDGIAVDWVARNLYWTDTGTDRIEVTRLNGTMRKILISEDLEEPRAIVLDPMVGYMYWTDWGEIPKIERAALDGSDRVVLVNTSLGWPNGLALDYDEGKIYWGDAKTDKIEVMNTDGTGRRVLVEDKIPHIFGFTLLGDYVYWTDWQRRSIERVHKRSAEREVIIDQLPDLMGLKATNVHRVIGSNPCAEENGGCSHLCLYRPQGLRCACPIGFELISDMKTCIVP
# B1: VEGF_CKP9.54.90-Alkyn (designed binder)
# chain: GCNIMLPFWGCGRDFECLAGCVCQYYQSCG
# modifications: cysteine pairing not given here; also: -Alkyn: alkyne modification, position not given here
# Key:
# hVEGF-A (8-109) [1] = biological target: T1, hVEGF-A (8-109); assay: phage competition ELISA
# hVEGF-A (8-109) [2] = biological target: T1, hVEGF-A (8-109); assay: phage competition ELISA (clone on phage; the concentration varied on the axis is that of hVEGF (8-109))
# hVEGF-A [3] = biological target: T3, hVEGF-A (human, UniProt P15692-4 27-191, limits assumed); assay: cell-based or functional assay
# hVEGF-A [4] = biological target: T3, hVEGF-A
# LRP6 E1E2 protein = biological target: T2, LRP6 E1E2 protein; assay: spot phage ELISA
# LRP6 [5] = biological target: T4, LRP6 (human, UniProt O75581 20-1613); assay: cell-based or functional assay
# LRP6 [6] = biological target: T4, LRP6; assay: cell-based or functional assay; remark: listed apart in the source
# hVEGF-A [7] = biological target: T3, hVEGF-A; assay: SPR
# Description: Depending on the format of the assay either a streptavidin sensor (SA) or a dextran-coated (CM5) sensor was utilized as described below.
# Reaction was then quenched by addition of 10 molar excess of Glycine pH 8.0 and the sample was buffer exchanged into PBS using an Amicon 0.5 mL 3000 MWCO ultra-centrifugal filters (EMD Millipore). The biotinylation state of the protein was verified by LC-MS analysis. Biotinylated VEGF-A was then captured on the surface until a resonance unit (RU) signal of about ˜400. For immobilization of VEGF-A on CM5 sensor, the surface was first activated with a mixture of N-ethyl-N′-(3-dimethylaminopropyl)carbodiimide hydrochloride and N-hydroxysuccinimide (EDC/NHS) according to the supplier instructions. VEGF-A was then diluted into coupling buffer (0.1 M Acetate Buffer, pH 5.0) and injected until the signal reached about ˜400 RU followed by a wash with 1 M ethanolamine pH 8.0 to quench remaining activated sites.
# hVEGF-A [8] = biological target: T3, hVEGF-A; assay: KDR-VEGF competition ELISA
# hVEGF-A (8-109) [9] = biological target: T1, hVEGF-A (8-109); assay: spot phage ELISA
# How it was run: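 Phage clones from four selection rounds were grown overnight at 37 °C with M13-KO7 helper phage. Bound phage was detected with anti-M13-HRP and TMB, with binding to BSA alone run in parallel as background.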
# hVEGF-A [10] = biological target: T3, hVEGF-A; assay: cell-based or functional assay; remark: listed apart in the source
# hVEGF-A (8-109) [11] = biological target: T1, hVEGF-A (8-109); assay: spot phage ELISA; remark: listed apart in the source
# Description: (§1) After four rounds of binding selection, individual phage clones were picked and inoculated into 450 μl 2YT media containing 50 µg/ml Carbenecillin and M13-KO7 helper phage in 96-well blocks, which were grown at 37° C. overnight. […] The plates were washed and bound phage was detected with anti-M13-HRP followed by TMB substrate. In these assays, phage binding to BSA alone was tested in parallel to assess background binding. […] Positive clones were subjected to DNA sequence analysis.
# hVEGF-A (8-109) [12] = biological target: T1, hVEGF-A (8-109); assay: spot phage ELISA; remark: listed apart in the source
# Description: as §1
# hVEGF-A [13] = biological target: T3, hVEGF-A; assay: phage competition ELISA, soluble CKP
# hVEGF-A [14] = biological target: T3, hVEGF-A; assay: phage competition ELISA, soluble CKP; remark: listed apart in the source
# hVEGF-A [15] = biological target: T3, hVEGF-A; assay: cell-based or functional assay; remark: listed apart in the source
# hVEGF-A [16] = biological target: T3, hVEGF-A; assay: cell-based or functional assay; remark: listed apart in the source
binder,measurement,setting,value
GCNIMLPFWGCGQSFECLAGCICQYYQSCGIA (designed binder) [9.54.1-2],fold improvement in binding affinity compared to 9.54.1,hVEGF-A (8-109) [1],~10 fold
GCNIMLPFWGCGQSFECLAGCICQYYQSCGVH (designed binder) [9.54.1-90],fold improvement in binding affinity compared to 9.54.1,hVEGF-A (8-109) [1],~10 fold
same,IC50 (read off the curve),hVEGF-A (8-109) [2],~0.08 nM
GCNIMLPFWGCGQSFECLAGCICQYYQSCGGS (designed binder) [9.54.1-63],fold improvement in binding affinity compared to 9.54.1,hVEGF-A (8-109) [1],~10 fold
GCNIMLPFWGCGQSFECLAGCICQYYQSCGTR (designed binder) [9.54.1-36],fold improvement in binding affinity compared to 9.54.1,hVEGF-A (8-109) [1],~10 fold
same,IC50 (read off the curve),hVEGF-A (8-109) [2],~0.06 nM
GCNIMLPFWGCGQSFECLAGCICQYYQSCGLS (designed binder) [9.54.1-42],fold improvement in binding affinity compared to 9.54.1,hVEGF-A (8-109) [1],~10 fold
same,IC50 (read off the curve),hVEGF-A (8-109) [2],~0.08 nM
GCNIMLPFWGCGRDFECMNQCICQYYQSCG (designed binder) [VEGF_CKP9.54.90.13],Cellular IC50,hVEGF-A [3],0.96 nM
same,FOLD [..] [..] TO VARIANT 9.54.90,hVEGF-A [3],1.41 fold
same,IC50 (read off the curve),hVEGF-A [4],0.02 µM
GCNIMLPFWGCGRDFECFYECICQYYQSCG (designed binder) [VEGF_CKP9.54.90.62],Cellular IC50,hVEGF-A [3],0.92 nM
same,FOLD [..] [..] TO VARIANT 9.54.90,hVEGF-A [3],1.47 fold
same,IC50 (read off the curve),hVEGF-A [4],0.02 µM
GCNIMLPFWGCKQDFDCLAGCICQYYQSCGFH (designed binder) [9.54-28],fold improvement in binding affinity compared to 9.54,hVEGF-A (8-109) [1],~10 fold
same,IC50 (read off the curve),hVEGF-A (8-109) [2],~0.1 nM
GCSNRVKVRACKQDSDCLAGCVCGPNGFCG (designed binder) [LRP6_CKP19],ELISA,LRP6 E1E2 protein,3.27
same,S/N vs BSA,LRP6 E1E2 protein,42
same,"Best Fit IC50 (nM) for Wnt1 (5 ng/well), luciferase reporter, fraction F1",LRP6 [5],23100 nM
same,"Best Fit IC50 (nM) for Wnt1 (5 ng/well), luciferase reporter, fraction F2",LRP6 [5],49300 nM
same,"Best Fit IC50 (nM) for Wnt3a (25 ng/well), luciferase reporter, fraction F1",LRP6 [6],59300 nM
same,"Best Fit IC50 (nM) for Wnt3a (25 ng/well), luciferase reporter, fraction F2",LRP6 [6],69800 nM
B1,Kd,hVEGF-A [7],0.49 nM
GCNIMLPFWGCGRDFECMEQCICQYYQSCG (designed binder) [VEGF_CKP9.54.90.67],Cellular IC50,hVEGF-A [3],1.1 nM
same,FOLD [..] [..] TO VARIANT 9.54.90,hVEGF-A [3],1.23 fold
same,IC50 (read off the curve),hVEGF-A [4],0.012 to 0.02 µM
GCRNSIKRCKQNSDCLAGCVCSVGHGCG (designed binder) [LRP6_CKP6],ELISA,LRP6 E1E2 protein,3.1
same,S/N vs BSA,LRP6 E1E2 protein,37.4
same,"Best Fit IC50 (nM) for Wnt1 (5 ng/well), luciferase reporter, fraction F1",LRP6 [5],22900 nM
same,"Best Fit IC50 (nM) for Wnt1 (5 ng/well), luciferase reporter, fraction F2",LRP6 [5],23800 nM
same,"Best Fit IC50 (nM) for Wnt1 (5 ng/well), luciferase reporter, fraction F3",LRP6 [5],4620 nM
same,"Best Fit IC50 (nM) for Wnt3a (25 ng/well), luciferase reporter, fraction F1",LRP6 [6],350000 nM
same,"Best Fit IC50 (nM) for Wnt3a (25 ng/well), luciferase reporter, fraction F2",LRP6 [6],276000 nM
GCNIMLPFWGCGRDFECMSDCICQYYQSCG (designed binder) [VEGF_CKP9.54.90.12],Cellular IC50,hVEGF-A [3],1.2 nM
same,FOLD [..] [..] TO VARIANT 9.54.90,hVEGF-A [3],1.12 fold
same,IC50 (read off the curve),hVEGF-A [4],0.03 µM
"GCQLMQPFWGCKQDSDCLAGCVCHWYQSCG (designed binder, also called E9) [VEGF_CKP9]",IC50,hVEGF-A [8],569 nM
same,ELISA,hVEGF-A (8-109) [9],0.4
same,S/N vs BSA,hVEGF-A (8-109) [9],7.4
same,Kd,hVEGF-A [7],5000 nM
same,Cellular IC50,hVEGF-A [10],11.7 µM
same,ELISA,hVEGF-A (8-109) [11],3.3
same,S/N vs BSA,hVEGF-A (8-109) [11],36
same,ELISA,hVEGF-A (8-109) [12],0.4
same,S/N vs BSA,hVEGF-A (8-109) [12],7.4
same,IC50,hVEGF-A [13],1360 nM
same,IC50,hVEGF-A [14],600 nM
same,Cellular IC50,hVEGF-A [15],11.7 µM
GCDVLQPFWGCKQDSDCLAGCVCHWYQSCG (designed binder) [VEGF_CKP9.2],ELISA,hVEGF-A (8-109) [9],2.4
same,S/N vs BSA,hVEGF-A (8-109) [9],31.1
same,Cellular IC50,hVEGF-A [10],0.27 µM
same,IC50,hVEGF-A [13],168 nM
GCNIMLPFWGCGQSFECLAGCVCQYYQSCG (designed binder) [VEGF_CKP9.54.1],IC50,hVEGF-A [8],0.2 nM
same,Kd,hVEGF-A [7],2.2 nM
same,ELISA,hVEGF-A (8-109) [11],2.4
same,S/N vs BSA,hVEGF-A (8-109) [11],29.9
same,IC50 (read off the curve),hVEGF-A (8-109) [2],~0.3 nM
same,Cellular IC50,hVEGF-A [15],0.00147 µM
GCNIMLPYWGCGRDFECLAGCVCQYYQSCG (designed binder) [VEGF_CKP9.54.90.F8Y],Kd,hVEGF-A [7],0.4 nM
same,Cellular IC50,hVEGF-A [16],1.58 nM
same,FOLD [..] [..] TO VARIANT 9.54.90,hVEGF-A [16],0.85 fold
